The chains are these.
B1: GLS3000 H27dA one-arm antibody (antibody, human IgG1, kappa, L234A L235A, N297A, name in Kabat numbering)
heavy: QVQLVESGGGVVQPGRSLRLSCAASGFTFSNAWMHWVRQAPGKGLEWVAQIKAKSNNYATYYAESVKGRFTISRDDSKNSLYLQMNSLKTEDTAVYYCRYVHYGAYYGVDAWGQGTTVTVSSASTKGPSVFPLAPSSKSTSGGTAALGCLVKDYFPEPVTVSWNSGALTSGVHTFPAVLQSSGLYSLSSVVTVPSSSLGTQTYICNVNHKPSNTKVDKKVEPKSCDKTHTCPPCPAPEAAGGPSVFLFPPKPKDTLMISRTPEVTCVVVDVSHEDPEVKFNWYVDGVEVHNAKTKPREEQYASTYRVVSVLTVLHQDWLNGKEYKCKVSNKALPAPIEKTISKAKGQPREPQVYTLPPSRCELTKNQVSLSCAVKGFYPSDIAVEWESNGQPENNYKTTPPVLDSDGSFFLVSKLTVDKSRWQQGNVFSCSVMHEALHNHYTQKSLSLSPDYKDDDDK
chain: EPKSSDKTHTCPPCPAPELLGGPSVFLFPPKPKDTLMISRTPEVTCVVVDVSHEDPEVKFNWYVDGVEVHNAKTKPREEQYNSTYRVVSVLTVLHQDWLNGKEYKCKVSNKALPAPIEKTISKAKGQPREPQVCTLPPSRDELTKNQVSLWCLVKGFYPSDIAVEWESNGQPENNYKTTPPVLDSDGSFFLYSKLTVDKSRWQQGNVFSCSVMHEALHNRYTQKSLSLSP
light: DIVMTQSPLSLPVTPGEPASISCRSSQSLVASNRNTYLHWYQQKPGQAPRLLIYKVSNRFSGVPDRFSGSGSGTDFTLKISRVEAEDVGVYYCGQGTQVPYTFGQGTKLEIKRTVAAPSVFIFPPSDEQLKSGTASVVCLLNNFYPREAKVQWKVDNALQSGNSQESVTEQDSKDSTYSLSSTLTLSKADYEKHKVYACEVTHQGLSSPVTKSFNRGEC
B2: GLS3000 F55D one-arm antibody (antibody, human IgG1, kappa, L234A L235A, N297A, name in Kabat numbering)
heavy: QVQLVESGGGVVQPGRSLRLSCAASGFTFSNAWMHWVRQAPGKGLEWVAQIKAKSNNYATYYAESVKGRFTISRDDSKNSLYLQMNSLKTEDTAVYYCRYVHYGAYYGVDAWGQGTTVTVSSASTKGPSVFPLAPSSKSTSGGTAALGCLVKDYFPEPVTVSWNSGALTSGVHTFPAVLQSSGLYSLSSVVTVPSSSLGTQTYICNVNHKPSNTKVDKKVEPKSCDKTHTCPPCPAPEAAGGPSVFLFPPKPKDTLMISRTPEVTCVVVDVSHEDPEVKFNWYVDGVEVHNAKTKPREEQYASTYRVVSVLTVLHQDWLNGKEYKCKVSNKALPAPIEKTISKAKGQPREPQVYTLPPSRCELTKNQVSLSCAVKGFYPSDIAVEWESNGQPENNYKTTPPVLDSDGSFFLVSKLTVDKSRWQQGNVFSCSVMHEALHNHYTQKSLSLSPDYKDDDDK
chain: EPKSSDKTHTCPPCPAPELLGGPSVFLFPPKPKDTLMISRTPEVTCVVVDVSHEDPEVKFNWYVDGVEVHNAKTKPREEQYNSTYRVVSVLTVLHQDWLNGKEYKCKVSNKALPAPIEKTISKAKGQPREPQVCTLPPSRDELTKNQVSLWCLVKGFYPSDIAVEWESNGQPENNYKTTPPVLDSDGSFFLYSKLTVDKSRWQQGNVFSCSVMHEALHNRYTQKSLSLSP
light: DIVMTQSPLSLPVTPGEPASISCRSSQSLVHSNRNTYLHWYQQKPGQAPRLLIYKVSNRDSGVPDRFSGSGSGTDFTLKISRVEAEDVGVYYCGQGTQVPYTFGQGTKLEIKRTVAAPSVFIFPPSDEQLKSGTASVVCLLNNFYPREAKVQWKVDNALQSGNSQESVTEQDSKDSTYSLSSTLTLSKADYEKHKVYACEVTHQGLSSPVTKSFNRGEC
B3: GLS3000 F55H one-arm antibody (antibody, human IgG1, kappa, L234A L235A, N297A, name in Kabat numbering)
heavy: QVQLVESGGGVVQPGRSLRLSCAASGFTFSNAWMHWVRQAPGKGLEWVAQIKAKSNNYATYYAESVKGRFTISRDDSKNSLYLQMNSLKTEDTAVYYCRYVHYGAYYGVDAWGQGTTVTVSSASTKGPSVFPLAPSSKSTSGGTAALGCLVKDYFPEPVTVSWNSGALTSGVHTFPAVLQSSGLYSLSSVVTVPSSSLGTQTYICNVNHKPSNTKVDKKVEPKSCDKTHTCPPCPAPEAAGGPSVFLFPPKPKDTLMISRTPEVTCVVVDVSHEDPEVKFNWYVDGVEVHNAKTKPREEQYASTYRVVSVLTVLHQDWLNGKEYKCKVSNKALPAPIEKTISKAKGQPREPQVYTLPPSRCELTKNQVSLSCAVKGFYPSDIAVEWESNGQPENNYKTTPPVLDSDGSFFLVSKLTVDKSRWQQGNVFSCSVMHEALHNHYTQKSLSLSPDYKDDDDK
chain: EPKSSDKTHTCPPCPAPELLGGPSVFLFPPKPKDTLMISRTPEVTCVVVDVSHEDPEVKFNWYVDGVEVHNAKTKPREEQYNSTYRVVSVLTVLHQDWLNGKEYKCKVSNKALPAPIEKTISKAKGQPREPQVCTLPPSRDELTKNQVSLWCLVKGFYPSDIAVEWESNGQPENNYKTTPPVLDSDGSFFLYSKLTVDKSRWQQGNVFSCSVMHEALHNRYTQKSLSLSP
light: DIVMTQSPLSLPVTPGEPASISCRSSQSLVHSNRNTYLHWYQQKPGQAPRLLIYKVSNRHSGVPDRFSGSGSGTDFTLKISRVEAEDVGVYYCGQGTQVPYTFGQGTKLEIKRTVAAPSVFIFPPSDEQLKSGTASVVCLLNNFYPREAKVQWKVDNALQSGNSQESVTEQDSKDSTYSLSSTLTLSKADYEKHKVYACEVTHQGLSSPVTKSFNRGEC
B4: GLS3000 F55G one-arm antibody (antibody, human IgG1, kappa, L234A L235A, N297A, name in Kabat numbering)
heavy: QVQLVESGGGVVQPGRSLRLSCAASGFTFSNAWMHWVRQAPGKGLEWVAQIKAKSNNYATYYAESVKGRFTISRDDSKNSLYLQMNSLKTEDTAVYYCRYVHYGAYYGVDAWGQGTTVTVSSASTKGPSVFPLAPSSKSTSGGTAALGCLVKDYFPEPVTVSWNSGALTSGVHTFPAVLQSSGLYSLSSVVTVPSSSLGTQTYICNVNHKPSNTKVDKKVEPKSCDKTHTCPPCPAPEAAGGPSVFLFPPKPKDTLMISRTPEVTCVVVDVSHEDPEVKFNWYVDGVEVHNAKTKPREEQYASTYRVVSVLTVLHQDWLNGKEYKCKVSNKALPAPIEKTISKAKGQPREPQVYTLPPSRCELTKNQVSLSCAVKGFYPSDIAVEWESNGQPENNYKTTPPVLDSDGSFFLVSKLTVDKSRWQQGNVFSCSVMHEALHNHYTQKSLSLSPDYKDDDDK
chain: EPKSSDKTHTCPPCPAPELLGGPSVFLFPPKPKDTLMISRTPEVTCVVVDVSHEDPEVKFNWYVDGVEVHNAKTKPREEQYNSTYRVVSVLTVLHQDWLNGKEYKCKVSNKALPAPIEKTISKAKGQPREPQVCTLPPSRDELTKNQVSLWCLVKGFYPSDIAVEWESNGQPENNYKTTPPVLDSDGSFFLYSKLTVDKSRWQQGNVFSCSVMHEALHNRYTQKSLSLSP
light: DIVMTQSPLSLPVTPGEPASISCRSSQSLVHSNRNTYLHWYQQKPGQAPRLLIYKVSNRGSGVPDRFSGSGSGTDFTLKISRVEAEDVGVYYCGQGTQVPYTFGQGTKLEIKRTVAAPSVFIFPPSDEQLKSGTASVVCLLNNFYPREAKVQWKVDNALQSGNSQESVTEQDSKDSTYSLSSTLTLSKADYEKHKVYACEVTHQGLSSPVTKSFNRGEC
B5: GLS3000 F55A one-arm antibody (antibody, human IgG1, kappa, L234A L235A, N297A, name in Kabat numbering)
heavy: QVQLVESGGGVVQPGRSLRLSCAASGFTFSNAWMHWVRQAPGKGLEWVAQIKAKSNNYATYYAESVKGRFTISRDDSKNSLYLQMNSLKTEDTAVYYCRYVHYGAYYGVDAWGQGTTVTVSSASTKGPSVFPLAPSSKSTSGGTAALGCLVKDYFPEPVTVSWNSGALTSGVHTFPAVLQSSGLYSLSSVVTVPSSSLGTQTYICNVNHKPSNTKVDKKVEPKSCDKTHTCPPCPAPEAAGGPSVFLFPPKPKDTLMISRTPEVTCVVVDVSHEDPEVKFNWYVDGVEVHNAKTKPREEQYASTYRVVSVLTVLHQDWLNGKEYKCKVSNKALPAPIEKTISKAKGQPREPQVYTLPPSRCELTKNQVSLSCAVKGFYPSDIAVEWESNGQPENNYKTTPPVLDSDGSFFLVSKLTVDKSRWQQGNVFSCSVMHEALHNHYTQKSLSLSPDYKDDDDK
chain: EPKSSDKTHTCPPCPAPELLGGPSVFLFPPKPKDTLMISRTPEVTCVVVDVSHEDPEVKFNWYVDGVEVHNAKTKPREEQYNSTYRVVSVLTVLHQDWLNGKEYKCKVSNKALPAPIEKTISKAKGQPREPQVCTLPPSRDELTKNQVSLWCLVKGFYPSDIAVEWESNGQPENNYKTTPPVLDSDGSFFLYSKLTVDKSRWQQGNVFSCSVMHEALHNRYTQKSLSLSP
light: DIVMTQSPLSLPVTPGEPASISCRSSQSLVHSNRNTYLHWYQQKPGQAPRLLIYKVSNRASGVPDRFSGSGSGTDFTLKISRVEAEDVGVYYCGQGTQVPYTFGQGTKLEIKRTVAAPSVFIFPPSDEQLKSGTASVVCLLNNFYPREAKVQWKVDNALQSGNSQESVTEQDSKDSTYSLSSTLTLSKADYEKHKVYACEVTHQGLSSPVTKSFNRGEC
B6: GLS3000 F55E one-arm antibody (antibody, human IgG1, kappa, L234A L235A, N297A, name in Kabat numbering)
heavy: QVQLVESGGGVVQPGRSLRLSCAASGFTFSNAWMHWVRQAPGKGLEWVAQIKAKSNNYATYYAESVKGRFTISRDDSKNSLYLQMNSLKTEDTAVYYCRYVHYGAYYGVDAWGQGTTVTVSSASTKGPSVFPLAPSSKSTSGGTAALGCLVKDYFPEPVTVSWNSGALTSGVHTFPAVLQSSGLYSLSSVVTVPSSSLGTQTYICNVNHKPSNTKVDKKVEPKSCDKTHTCPPCPAPEAAGGPSVFLFPPKPKDTLMISRTPEVTCVVVDVSHEDPEVKFNWYVDGVEVHNAKTKPREEQYASTYRVVSVLTVLHQDWLNGKEYKCKVSNKALPAPIEKTISKAKGQPREPQVYTLPPSRCELTKNQVSLSCAVKGFYPSDIAVEWESNGQPENNYKTTPPVLDSDGSFFLVSKLTVDKSRWQQGNVFSCSVMHEALHNHYTQKSLSLSPDYKDDDDK
chain: EPKSSDKTHTCPPCPAPELLGGPSVFLFPPKPKDTLMISRTPEVTCVVVDVSHEDPEVKFNWYVDGVEVHNAKTKPREEQYNSTYRVVSVLTVLHQDWLNGKEYKCKVSNKALPAPIEKTISKAKGQPREPQVCTLPPSRDELTKNQVSLWCLVKGFYPSDIAVEWESNGQPENNYKTTPPVLDSDGSFFLYSKLTVDKSRWQQGNVFSCSVMHEALHNRYTQKSLSLSP
light: DIVMTQSPLSLPVTPGEPASISCRSSQSLVHSNRNTYLHWYQQKPGQAPRLLIYKVSNRESGVPDRFSGSGSGTDFTLKISRVEAEDVGVYYCGQGTQVPYTFGQGTKLEIKRTVAAPSVFIFPPSDEQLKSGTASVVCLLNNFYPREAKVQWKVDNALQSGNSQESVTEQDSKDSTYSLSSTLTLSKADYEKHKVYACEVTHQGLSSPVTKSFNRGEC

For the experiment, the target named is T1, CD3ε homodimer protein (human, UniProt P07766 23-126, limits assumed).
T1 construct: also called CD3 (CD3ε)
T1 sequence (P07766 23-126 limits assumed): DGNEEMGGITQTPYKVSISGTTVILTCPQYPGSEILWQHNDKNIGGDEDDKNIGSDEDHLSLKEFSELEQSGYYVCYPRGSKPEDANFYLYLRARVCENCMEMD
Briefly: SPR Biacore T200, CD3ε homodimer on chip.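 Further: Light-chain single-residue variant antibodies injected over amine-coupled CD3ε homodimer on a CM4 chip at 25 °C, bound amount divided by that of the GLS3000-containing antibody.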 A general note: SPR reads the build-up and loss of mass on a sensor chip optically.
Description: Each one-amino acid altered form constructed, expressed, and purified in the paragraph (6-2) was evaluated using Biacore T200 (GE Healthcare Japan Corp.). An appropriate amount of CD3ε homodimer protein was immobilized onto Sensor chip CM4 (GE Healthcare Japan Corp.) by the amine coupling method. Then, the antibody having an appropriate concentration was injected thereto as an analyte and allowed to interact with the CD3ε homodimer protein on the sensor chip. Then, the sensor chip was regenerated by the injection of 10 mmol/L glycine-HCl (pH 1.5). The assay was conducted at 25° C., and HBS-EP+ (GE Healthcare Japan Corp.) was used as a running buffer. […] Each parameter was calculated using Biacore T200 Evaluation Software (GE Healthcare Japan Corp.).
Specifically, when the amount of the GLS3000-containing antibody bound was defined as X and the amount of the L chain one-amino acid altered form bound was defined as Y, a value of Z (ratio of amounts bound)=Y/X was used.
In the case of B1, the “ratio of amount bound vs unaltered GLS3000” value (shortened to “ratio of amount bound”) was determined as 0.48.
For B2, the “ratio of amount bound” value came out at 0.65.
As for B3, the “ratio of amount bound” value is 0.94.
As to B4, the “ratio of amount bound” value was 1.31.
For B5, the “ratio of amount bound” value worked out at 1.13.
In the case of B6, the “ratio of amount bound” value stood at 0.72.

Values taken from US20260049138A1 (Chugai, published 2026).
